This assay has as its target adenomatous polyposis coli (APC), endogenous in Xenopus egg extracts (Xenopus laevis (endogenous in egg extracts)) (UniProt P70039). The experiment in a line: co-IP.
Sequence of UniProt P70039 (P70039 whole entry): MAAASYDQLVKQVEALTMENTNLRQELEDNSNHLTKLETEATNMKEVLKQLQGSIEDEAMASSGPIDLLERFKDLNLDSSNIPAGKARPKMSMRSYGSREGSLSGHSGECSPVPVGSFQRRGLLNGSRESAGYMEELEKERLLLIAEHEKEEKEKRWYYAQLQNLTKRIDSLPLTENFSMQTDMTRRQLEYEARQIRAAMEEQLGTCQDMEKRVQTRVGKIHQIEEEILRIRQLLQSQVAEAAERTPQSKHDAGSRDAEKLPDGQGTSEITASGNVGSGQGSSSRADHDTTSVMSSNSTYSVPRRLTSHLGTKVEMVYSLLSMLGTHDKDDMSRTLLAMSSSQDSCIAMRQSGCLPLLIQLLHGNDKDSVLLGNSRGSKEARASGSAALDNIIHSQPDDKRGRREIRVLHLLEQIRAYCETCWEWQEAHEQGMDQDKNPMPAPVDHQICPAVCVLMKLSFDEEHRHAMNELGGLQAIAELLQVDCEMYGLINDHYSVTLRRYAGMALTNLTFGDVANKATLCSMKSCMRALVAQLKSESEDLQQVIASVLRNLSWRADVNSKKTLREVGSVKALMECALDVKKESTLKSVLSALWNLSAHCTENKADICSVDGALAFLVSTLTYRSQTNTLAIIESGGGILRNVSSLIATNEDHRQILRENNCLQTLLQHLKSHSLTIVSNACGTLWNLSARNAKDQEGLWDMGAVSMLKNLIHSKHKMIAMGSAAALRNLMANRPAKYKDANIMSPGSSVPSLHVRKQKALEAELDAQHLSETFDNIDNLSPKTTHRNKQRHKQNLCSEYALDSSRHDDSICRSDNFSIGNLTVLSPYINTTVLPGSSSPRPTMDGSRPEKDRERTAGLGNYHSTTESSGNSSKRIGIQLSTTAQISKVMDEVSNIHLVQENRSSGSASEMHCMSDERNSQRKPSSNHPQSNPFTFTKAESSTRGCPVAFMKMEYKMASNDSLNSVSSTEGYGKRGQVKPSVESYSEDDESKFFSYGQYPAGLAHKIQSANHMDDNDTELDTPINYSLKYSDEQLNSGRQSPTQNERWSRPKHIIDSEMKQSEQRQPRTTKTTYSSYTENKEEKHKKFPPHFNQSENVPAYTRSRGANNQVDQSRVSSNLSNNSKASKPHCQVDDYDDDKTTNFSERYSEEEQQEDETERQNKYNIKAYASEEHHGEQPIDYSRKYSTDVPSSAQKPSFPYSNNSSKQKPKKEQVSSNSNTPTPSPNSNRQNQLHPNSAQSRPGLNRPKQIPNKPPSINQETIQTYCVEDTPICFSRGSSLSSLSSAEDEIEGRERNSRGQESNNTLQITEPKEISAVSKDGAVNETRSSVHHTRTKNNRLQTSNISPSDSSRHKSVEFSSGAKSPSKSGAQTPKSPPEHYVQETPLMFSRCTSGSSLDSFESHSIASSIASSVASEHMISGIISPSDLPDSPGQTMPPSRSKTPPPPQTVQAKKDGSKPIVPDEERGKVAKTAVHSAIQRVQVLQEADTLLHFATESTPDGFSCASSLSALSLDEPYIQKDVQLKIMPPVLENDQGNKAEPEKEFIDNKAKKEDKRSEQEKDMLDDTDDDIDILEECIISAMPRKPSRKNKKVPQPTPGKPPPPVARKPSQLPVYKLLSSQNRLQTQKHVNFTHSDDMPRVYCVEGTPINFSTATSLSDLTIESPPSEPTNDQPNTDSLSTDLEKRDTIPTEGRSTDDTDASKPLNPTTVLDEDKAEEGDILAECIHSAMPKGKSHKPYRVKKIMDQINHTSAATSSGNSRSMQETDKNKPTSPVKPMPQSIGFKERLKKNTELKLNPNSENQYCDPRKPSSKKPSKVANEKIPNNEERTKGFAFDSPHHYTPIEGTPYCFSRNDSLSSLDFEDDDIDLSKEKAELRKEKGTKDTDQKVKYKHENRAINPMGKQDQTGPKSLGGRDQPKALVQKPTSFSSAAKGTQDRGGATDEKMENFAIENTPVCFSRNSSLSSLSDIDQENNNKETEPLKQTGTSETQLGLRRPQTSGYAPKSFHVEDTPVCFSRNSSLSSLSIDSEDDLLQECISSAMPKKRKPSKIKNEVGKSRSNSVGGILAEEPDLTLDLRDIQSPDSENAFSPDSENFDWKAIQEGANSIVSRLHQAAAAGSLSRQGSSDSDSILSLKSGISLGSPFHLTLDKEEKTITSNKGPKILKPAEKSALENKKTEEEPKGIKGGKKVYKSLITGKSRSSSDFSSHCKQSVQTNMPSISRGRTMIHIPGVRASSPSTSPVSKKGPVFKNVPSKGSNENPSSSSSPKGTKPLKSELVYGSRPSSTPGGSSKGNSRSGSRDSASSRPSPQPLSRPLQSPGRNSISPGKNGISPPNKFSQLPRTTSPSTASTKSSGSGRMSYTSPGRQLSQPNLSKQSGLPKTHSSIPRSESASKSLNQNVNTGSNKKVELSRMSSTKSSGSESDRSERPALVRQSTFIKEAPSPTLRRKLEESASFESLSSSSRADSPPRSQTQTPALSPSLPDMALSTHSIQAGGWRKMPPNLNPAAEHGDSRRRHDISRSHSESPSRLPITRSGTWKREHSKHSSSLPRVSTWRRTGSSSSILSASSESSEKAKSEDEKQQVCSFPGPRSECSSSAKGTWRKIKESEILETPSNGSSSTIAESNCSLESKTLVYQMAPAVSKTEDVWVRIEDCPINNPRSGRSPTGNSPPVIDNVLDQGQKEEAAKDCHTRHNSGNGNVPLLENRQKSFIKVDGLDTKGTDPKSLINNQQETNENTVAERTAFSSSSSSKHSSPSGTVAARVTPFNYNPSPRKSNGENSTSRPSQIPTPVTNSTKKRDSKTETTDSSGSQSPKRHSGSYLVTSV

Regarding “GST–KD-BubR1 (recombinant Xenopus kinase-dead BubR1) (from UniProt B7ZQ97 1-1041) (natural protein)”, the percent less coimmunoprecipitated with APC than WT-BubR1 came to 40%.

For the origin of these results see PMC2064543.
